Reference: the Human Domainome abundance scans (Beltran et al. 2025)
± gives the uncertainty stated by the source.

B1: Max-interacting protein 1, residues 70 to 120; numbered along this chain, P50539 (parent)
chain: STHNELEKNRRAHLRLCLERLKVLIPLGPDCTRHTTLGLLNKAKAHIKKLE

Variants of: B1
Assay: abundance fitness (aPCA) (normalised: wild type 0, dead -1); higher = more abundant; growth selection in yeast, the domain comes from the species named
Conditions: Homo sapiens

Abundance fitness, by site and new letter:
A43: G -0.583 ± 0.085; N -0.553 ± 0.17; I -0.2 ± 0.14; E -0.58 ± 0.13; W -0.303 ± 0.11; F -0.182 ± 0.12; Q -0.74 ± 0.2; C -0.133 ± 0.1; P -0.53 ± 0.13; H -0.828 ± 0.17; K -0.939 ± 0.22; V -0.046 ± 0.086; S -0.652 ± 0.11; Y -0.918 ± 0.26; D -0.634 ± 0.17; T -0.339 ± 0.11
G38: R -0.009 ± 0.078; Y -0.546 ± 0.18; W -0.265 ± 0.092; V -0.242 ± 0.083; I -0.486 ± 0.22; E -0.185 ± 0.1; S -0.087 ± 0.089; M 0.118 ± 0.12; C -0.229 ± 0.13; L -0.326 ± 0.1; H -0.168 ± 0.18; A -0.055 ± 0.085; T -0.069 ± 0.1; K 0.081 ± 0.14; F -0.584 ± 0.12
T35: S 0.025 ± 0.089; L -0.017 ± 0.092; E -0.508 ± 0.11; C 0.019 ± 0.098; D -0.377 ± 0.14; V 0.057 ± 0.086; G -0.031 ± 0.075; K 0.218 ± 0.14; H -0.023 ± 0.14; W 0.189 ± 0.097; Q -0.176 ± 0.12; R 0.225 ± 0.075; Y 0.279 ± 0.15; P -0.103 ± 0.1; A 0.213 ± 0.082; F 0.198 ± 0.13
L39: P -0.597 ± 0.15; E -0.597 ± 0.13; I -0.07 ± 0.13; M -0.194 ± 0.11; V -0.257 ± 0.09; S -0.707 ± 0.11; H -1.15 ± 0.36; N -1 ± 0.17; D -1.11 ± 0.23; T -0.535 ± 0.16; A -0.704 ± 0.15; C -0.588 ± 0.13; Q -0.894 ± 0.18; K -0.881 ± 0.16; W 0.127 ± 0.096; R -0.879 ± 0.1; Y -0.555 ± 0.16
N41: M -0.559 ± 0.27; A -0.218 ± 0.2; K 0.109 ± 0.33; L -0.711 ± 0.18; D -0.322 ± 0.17; R -0.044 ± 0.1; P -0.44 ± 0.18; S -0.09 ± 0.14; F -0.7 ± 0.3; I -0.631 ± 0.33; Y -0.745 ± 0.34; T -0.555 ± 0.2; V -0.707 ± 0.17; C -0.237 ± 0.17; E -0.139 ± 0.27; W -0.83 ± 0.2
K42: D -0.992 ± 0.18; M -0.452 ± 0.16; H -0.813 ± 0.19; R -0.069 ± 0.076; P -0.808 ± 0.16; E -0.716 ± 0.17; T -0.196 ± 0.12; I -0.284 ± 0.16; Q -0.44 ± 0.13; S -0.338 ± 0.094; L -0.641 ± 0.1; W -0.23 ± 0.087; A -0.319 ± 0.095; C -0.185 ± 0.1; Y -0.684 ± 0.15; F -0.256 ± 0.13; N -0.598 ± 0.18; G -0.421 ± 0.08
L40: K -0.793 ± 0.24; E -0.857 ± 0.13; A -0.553 ± 0.11; M -0.098 ± 0.13; S -0.91 ± 0.12; P -0.89 ± 0.21; Y -0.617 ± 0.33; R -0.698 ± 0.088; Q -0.933 ± 0.19; N -0.584 ± 0.3; T -0.68 ± 0.15; C -0.926 ± 0.16; H -0.86 ± 0.32; D -1.13 ± 0.23; V -0.099 ± 0.085; W 0.323 ± 0.083; F 0.033 ± 0.11
H34: N 0.052 ± 0.15; Q -0.028 ± 0.11; W 0.017 ± 0.091; T -0.103 ± 0.11; Y -0.406 ± 0.15; R 0.264 ± 0.074; P -0.318 ± 0.15; S 0.047 ± 0.086; V 0.019 ± 0.094
A45: G -0.447 ± 0.085; F -0.346 ± 0.15; K -0.057 ± 0.13; D -0.617 ± 0.22; E -0.136 ± 0.12; C -0.25 ± 0.17; L -0.097 ± 0.093; H -0.168 ± 0.18; I 0.043 ± 0.16
T36: R -0.19 ± 0.09; F 0.155 ± 0.13; K -0.091 ± 0.15; Q -0.199 ± 0.13; D -0.705 ± 0.13; L -0.106 ± 0.1; S -0.132 ± 0.094; I -0.028 ± 0.12; V 0.308 ± 0.084; P -0.107 ± 0.12; H -0.176 ± 0.15; E -0.487 ± 0.13; G 0.134 ± 0.076; C 0.085 ± 0.13; N -0.183 ± 0.16; A 0.138 ± 0.097
L37: N -0.292 ± 0.21; D -0.375 ± 0.15; H -0.399 ± 0.25; R 0.253 ± 0.089; Q -0.154 ± 0.12; C -0.244 ± 0.19; T 0.042 ± 0.13; F 0.105 ± 0.15; V -0.023 ± 0.089; M -0.124 ± 0.14; W 0.125 ± 0.12; P -0.624 ± 0.15; S 0.06 ± 0.11; Y -0.172 ± 0.13; G -0.107 ± 0.089; K 0.073 ± 0.11; A -0.026 ± 0.093; E -0.344 ± 0.11
